From the supplement of paper PMC10065799, “High-throughput profiling of sequence recognition by tyrosine kinases and SH2 domains using bacterial peptide display” (eLife, 2023)
Blank lines part the entries; values can stand above or below the sequence they belong to.

Columns and labels:
[1] = target: SHP2-C SH2; test: SH2 binding enrichment of the phosphorylated peptide, bacterial display (enrichment ratio); higher = better substrate or ligand; peptides without Tyr show the background
[2] = target: c-Src SH2; test: as above
[3] = target: Grb2 SH2 (UniProt P62993); test: as above
[4] = target: FGFR3 (UniProt P22607); test: phosphorylation enrichment, bacterial display (enrichment ratio); higher = better substrate or ligand; peptides without Tyr show the background
Chain of FGFR3 (P22607 whole entry, looked up): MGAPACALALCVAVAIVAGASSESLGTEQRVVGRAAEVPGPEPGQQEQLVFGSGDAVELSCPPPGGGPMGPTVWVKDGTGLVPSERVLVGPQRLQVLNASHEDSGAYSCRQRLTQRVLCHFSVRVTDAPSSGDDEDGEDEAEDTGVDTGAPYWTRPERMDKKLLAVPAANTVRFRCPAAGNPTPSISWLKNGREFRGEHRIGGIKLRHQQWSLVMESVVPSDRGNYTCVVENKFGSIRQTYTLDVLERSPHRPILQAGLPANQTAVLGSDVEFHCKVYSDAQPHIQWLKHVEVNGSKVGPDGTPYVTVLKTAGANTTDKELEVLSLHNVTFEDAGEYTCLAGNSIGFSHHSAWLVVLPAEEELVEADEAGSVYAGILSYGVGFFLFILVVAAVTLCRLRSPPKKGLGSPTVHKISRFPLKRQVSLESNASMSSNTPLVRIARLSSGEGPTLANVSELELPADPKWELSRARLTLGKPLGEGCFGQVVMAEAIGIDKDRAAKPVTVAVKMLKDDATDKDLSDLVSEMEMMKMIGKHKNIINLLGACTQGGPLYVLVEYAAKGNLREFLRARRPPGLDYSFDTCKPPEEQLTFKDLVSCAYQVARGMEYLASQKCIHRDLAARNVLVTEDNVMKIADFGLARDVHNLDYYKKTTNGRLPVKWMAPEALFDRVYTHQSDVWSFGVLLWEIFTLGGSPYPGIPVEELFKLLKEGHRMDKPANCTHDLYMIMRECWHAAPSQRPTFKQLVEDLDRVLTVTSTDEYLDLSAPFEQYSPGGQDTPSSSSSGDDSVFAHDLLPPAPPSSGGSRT

[5] = test system: AncSZ; test: as above
[6] = target: Fes (UniProt P07332); test: as above
Chain of Fes (P07332 whole entry, looked up): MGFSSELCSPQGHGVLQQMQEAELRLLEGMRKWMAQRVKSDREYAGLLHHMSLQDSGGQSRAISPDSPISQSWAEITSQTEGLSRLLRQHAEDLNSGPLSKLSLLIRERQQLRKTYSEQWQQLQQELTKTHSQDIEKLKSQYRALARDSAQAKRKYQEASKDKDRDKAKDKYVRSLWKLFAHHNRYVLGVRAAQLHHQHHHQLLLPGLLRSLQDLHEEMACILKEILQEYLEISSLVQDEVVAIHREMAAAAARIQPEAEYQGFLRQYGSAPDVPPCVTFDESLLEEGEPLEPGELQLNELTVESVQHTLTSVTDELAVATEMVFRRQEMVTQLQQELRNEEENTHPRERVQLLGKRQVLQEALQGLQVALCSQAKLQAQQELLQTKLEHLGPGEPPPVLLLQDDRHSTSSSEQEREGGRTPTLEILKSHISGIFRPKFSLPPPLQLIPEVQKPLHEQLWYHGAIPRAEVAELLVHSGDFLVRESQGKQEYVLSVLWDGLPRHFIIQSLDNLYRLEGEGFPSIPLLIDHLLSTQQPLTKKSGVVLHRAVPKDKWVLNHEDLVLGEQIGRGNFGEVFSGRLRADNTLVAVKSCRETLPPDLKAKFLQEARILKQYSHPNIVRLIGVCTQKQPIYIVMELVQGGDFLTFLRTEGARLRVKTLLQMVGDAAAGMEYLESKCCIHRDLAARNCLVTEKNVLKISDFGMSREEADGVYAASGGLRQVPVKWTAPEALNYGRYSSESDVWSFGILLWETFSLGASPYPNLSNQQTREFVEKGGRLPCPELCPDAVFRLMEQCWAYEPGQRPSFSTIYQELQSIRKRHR

[7] = target: Jak2 (UniProt O60674); test: as above
[8] = target: Fyn (UniProt P06241); test: as above
Chain of Fyn (P06241 whole entry, looked up): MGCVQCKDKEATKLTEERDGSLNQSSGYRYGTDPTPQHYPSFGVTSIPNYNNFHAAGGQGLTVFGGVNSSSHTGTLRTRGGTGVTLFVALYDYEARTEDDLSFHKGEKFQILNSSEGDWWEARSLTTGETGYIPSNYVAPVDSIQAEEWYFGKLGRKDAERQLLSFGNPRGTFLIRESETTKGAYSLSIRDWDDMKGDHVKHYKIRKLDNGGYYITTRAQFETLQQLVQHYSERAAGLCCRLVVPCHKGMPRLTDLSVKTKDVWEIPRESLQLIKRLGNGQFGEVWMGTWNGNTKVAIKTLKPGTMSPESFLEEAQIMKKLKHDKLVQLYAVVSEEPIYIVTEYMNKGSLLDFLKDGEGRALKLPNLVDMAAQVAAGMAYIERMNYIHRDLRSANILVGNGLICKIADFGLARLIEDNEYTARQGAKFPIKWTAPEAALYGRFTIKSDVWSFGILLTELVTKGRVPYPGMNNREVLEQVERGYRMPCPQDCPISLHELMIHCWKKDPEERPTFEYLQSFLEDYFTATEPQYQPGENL

[9] = target: EPHB2 (UniProt P29323); test: as above
[10] = test system: c-Abl (mouse); test: as above
[11] = test system: Fer (mouse); test: as above
[12] = target: FGFR1 (UniProt P11362); test: as above
Chain of FGFR1 (P11362 whole entry, looked up): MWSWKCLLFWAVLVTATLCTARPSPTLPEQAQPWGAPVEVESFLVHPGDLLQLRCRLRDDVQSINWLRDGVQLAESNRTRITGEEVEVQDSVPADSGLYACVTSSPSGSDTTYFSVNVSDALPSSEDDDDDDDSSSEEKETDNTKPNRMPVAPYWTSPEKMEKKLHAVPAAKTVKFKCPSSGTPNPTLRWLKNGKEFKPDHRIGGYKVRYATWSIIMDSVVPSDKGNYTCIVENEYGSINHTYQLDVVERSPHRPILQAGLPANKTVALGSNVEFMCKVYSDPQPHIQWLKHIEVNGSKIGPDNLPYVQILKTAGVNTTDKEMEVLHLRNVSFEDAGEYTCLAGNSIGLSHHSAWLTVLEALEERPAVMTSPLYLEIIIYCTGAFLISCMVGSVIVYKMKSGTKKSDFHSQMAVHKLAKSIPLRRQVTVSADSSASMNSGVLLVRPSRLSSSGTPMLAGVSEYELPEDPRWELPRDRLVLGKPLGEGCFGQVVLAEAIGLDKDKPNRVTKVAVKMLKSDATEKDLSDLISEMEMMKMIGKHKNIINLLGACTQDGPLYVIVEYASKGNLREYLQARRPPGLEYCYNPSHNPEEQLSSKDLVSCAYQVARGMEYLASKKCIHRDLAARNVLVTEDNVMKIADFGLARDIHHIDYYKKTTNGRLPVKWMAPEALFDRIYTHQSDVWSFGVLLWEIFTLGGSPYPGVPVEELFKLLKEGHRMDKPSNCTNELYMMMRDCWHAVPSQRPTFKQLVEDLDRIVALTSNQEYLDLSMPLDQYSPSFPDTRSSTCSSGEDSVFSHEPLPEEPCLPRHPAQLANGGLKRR

[13] = target: EPHB1 (UniProt P54762); test: as above
Chain of EPHB1 (P54762 whole entry, looked up): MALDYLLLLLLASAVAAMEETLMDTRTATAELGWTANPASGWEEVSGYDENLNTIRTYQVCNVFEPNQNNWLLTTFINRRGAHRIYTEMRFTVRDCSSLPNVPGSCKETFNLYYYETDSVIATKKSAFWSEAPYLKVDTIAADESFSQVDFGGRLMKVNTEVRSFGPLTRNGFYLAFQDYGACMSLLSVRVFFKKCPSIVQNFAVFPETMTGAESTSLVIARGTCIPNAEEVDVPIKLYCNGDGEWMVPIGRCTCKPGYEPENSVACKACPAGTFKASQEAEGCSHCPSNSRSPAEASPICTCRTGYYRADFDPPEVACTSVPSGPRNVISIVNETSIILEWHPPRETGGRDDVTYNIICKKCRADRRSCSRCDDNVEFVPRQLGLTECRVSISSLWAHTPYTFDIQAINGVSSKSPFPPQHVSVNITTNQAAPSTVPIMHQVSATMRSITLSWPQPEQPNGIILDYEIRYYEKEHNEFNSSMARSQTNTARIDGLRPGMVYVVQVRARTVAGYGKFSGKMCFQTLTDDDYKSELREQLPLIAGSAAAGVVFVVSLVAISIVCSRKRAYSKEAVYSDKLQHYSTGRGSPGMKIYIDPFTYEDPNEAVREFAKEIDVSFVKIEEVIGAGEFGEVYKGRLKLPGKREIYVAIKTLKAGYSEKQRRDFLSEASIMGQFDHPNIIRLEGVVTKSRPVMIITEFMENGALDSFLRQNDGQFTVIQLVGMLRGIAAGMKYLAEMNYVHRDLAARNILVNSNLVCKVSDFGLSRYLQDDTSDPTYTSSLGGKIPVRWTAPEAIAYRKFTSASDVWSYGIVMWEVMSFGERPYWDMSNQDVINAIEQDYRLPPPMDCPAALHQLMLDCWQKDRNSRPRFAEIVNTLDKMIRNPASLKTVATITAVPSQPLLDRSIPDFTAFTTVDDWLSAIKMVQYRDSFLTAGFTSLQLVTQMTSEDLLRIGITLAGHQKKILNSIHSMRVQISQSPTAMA

[14] = test system: c-Src; test: as above
[15] = target: Hck (UniProt P08631); test: as above
[16] = target: MERTK (UniProt Q12866); test: as above
Chain of MERTK (Q12866 whole entry, looked up, the tested form may be a part): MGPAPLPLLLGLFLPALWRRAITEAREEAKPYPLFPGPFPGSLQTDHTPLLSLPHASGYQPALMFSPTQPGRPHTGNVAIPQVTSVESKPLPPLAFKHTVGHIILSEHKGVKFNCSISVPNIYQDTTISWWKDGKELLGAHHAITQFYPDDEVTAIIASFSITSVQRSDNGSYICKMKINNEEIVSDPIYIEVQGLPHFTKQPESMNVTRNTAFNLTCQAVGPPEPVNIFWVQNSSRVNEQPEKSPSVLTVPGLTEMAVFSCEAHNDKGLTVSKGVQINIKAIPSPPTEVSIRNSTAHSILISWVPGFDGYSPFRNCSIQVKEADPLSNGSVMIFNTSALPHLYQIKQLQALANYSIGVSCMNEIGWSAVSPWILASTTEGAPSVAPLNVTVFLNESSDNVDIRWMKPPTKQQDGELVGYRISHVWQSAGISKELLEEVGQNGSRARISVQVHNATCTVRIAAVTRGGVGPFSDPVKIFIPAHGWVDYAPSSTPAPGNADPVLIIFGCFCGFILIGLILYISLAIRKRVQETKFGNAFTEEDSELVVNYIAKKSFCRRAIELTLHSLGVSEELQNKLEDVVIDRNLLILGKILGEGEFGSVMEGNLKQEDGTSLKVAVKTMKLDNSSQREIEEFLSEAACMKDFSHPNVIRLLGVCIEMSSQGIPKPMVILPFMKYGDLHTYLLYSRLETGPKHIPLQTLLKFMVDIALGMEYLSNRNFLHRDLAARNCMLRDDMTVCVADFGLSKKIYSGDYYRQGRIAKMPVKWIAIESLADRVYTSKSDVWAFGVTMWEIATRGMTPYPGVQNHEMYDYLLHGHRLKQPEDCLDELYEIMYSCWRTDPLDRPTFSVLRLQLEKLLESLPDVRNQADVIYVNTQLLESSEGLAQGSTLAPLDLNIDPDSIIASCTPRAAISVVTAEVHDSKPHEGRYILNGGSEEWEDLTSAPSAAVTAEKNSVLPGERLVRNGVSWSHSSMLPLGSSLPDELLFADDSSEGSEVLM
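Wherever SH2 binding enrichment of the phosphorylated peptide, bacterial display is given: peptide library displayed on the E. coli surface as eCPX fusions, selected cells deep-sequenced, score is each peptide's frequency after selection divided by its frequency in the input.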
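Wherever phosphorylation enrichment, bacterial display is given: 11-residue human phosphosite peptides and single-mutation variants displayed on the E. coli surface, counted by deep sequencing, each peptide's frequency after selection divided by its frequency in the unselected input library; frequency after pTyr selection over input frequency; kinase dosed for 20-30% of maximal phosphorylation in three min.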

Sequence: ELTTCYRKKCS [CCBE1_Y70_C75S]
- SH2 binding enrichment [1]: 0.741
- SH2 binding enrichment [2]: 1.04
- SH2 binding enrichment [3]: 1.25
- phosphorylation enrichment [4]: 0.501
- phosphorylation enrichment [5]: 0.764
- phosphorylation enrichment [6]: 0.816
- phosphorylation enrichment [7]: 1.12
- phosphorylation enrichment [8]: 0.454
- phosphorylation enrichment [9]: 0.565
- phosphorylation enrichment [10]: 0.64
- phosphorylation enrichment [11]: 0.362
- phosphorylation enrichment [12]: 0.536
- phosphorylation enrichment [13]: 0.431
- phosphorylation enrichment [14]: 0.444
- phosphorylation enrichment [15]: 0.458
- phosphorylation enrichment [16]: 0.467

Sequence: RIDRKYKKVRF [F8_Y442_G439D]
- SH2 binding enrichment [1]: 0.665
- SH2 binding enrichment [2]: 0.656
- SH2 binding enrichment [3]: 1.17
- phosphorylation enrichment [4]: 0.922
- phosphorylation enrichment [5]: 1.25
- phosphorylation enrichment [6]: 1
- phosphorylation enrichment [7]: 2.67
- phosphorylation enrichment [8]: 0.849
- phosphorylation enrichment [9]: 0.807
- phosphorylation enrichment [10]: 1.3
- phosphorylation enrichment [11]: 0.934
- phosphorylation enrichment [12]: 0.72
- phosphorylation enrichment [13]: 0.761
- phosphorylation enrichment [14]: 1.32
- phosphorylation enrichment [15]: 1.05
- phosphorylation enrichment [16]: 1.19

Sequence: KNEVFYQCPDQ [FBXO3_Y223]
- SH2 binding enrichment [1]: 0.523
- SH2 binding enrichment [2]: 0.526
- SH2 binding enrichment [3]: 0.783
- phosphorylation enrichment [4]: 1.49
- phosphorylation enrichment [5]: 3.2
- phosphorylation enrichment [6]: 1.55
- phosphorylation enrichment [7]: 0.941
- phosphorylation enrichment [8]: 1.03
- phosphorylation enrichment [9]: 2.03
- phosphorylation enrichment [10]: 7.94
- phosphorylation enrichment [11]: 6.47
- phosphorylation enrichment [12]: 1.26
- phosphorylation enrichment [13]: 1.04
- phosphorylation enrichment [14]: 0.985
- phosphorylation enrichment [15]: 1.69
- phosphorylation enrichment [16]: 3.49

Sequence: KLADMYGGGED [CDH1_Y876]
- SH2 binding enrichment [1]: 0.748
- SH2 binding enrichment [2]: 0.558
- SH2 binding enrichment [3]: 0.812
- phosphorylation enrichment [4]: 0.509
- phosphorylation enrichment [5]: 0.766
- phosphorylation enrichment [6]: 0.79
- phosphorylation enrichment [7]: 0.732
- phosphorylation enrichment [8]: 0.484
- phosphorylation enrichment [9]: 0.43
- phosphorylation enrichment [10]: 0.455
- phosphorylation enrichment [11]: 0.461
- phosphorylation enrichment [12]: 0.561
- phosphorylation enrichment [13]: 0.424
- phosphorylation enrichment [14]: 0.42
- phosphorylation enrichment [15]: 0.463
- phosphorylation enrichment [16]: 0.436

Sequence: VDASFYGGRGV [ANTXR2_Y381_YF]
- SH2 binding enrichment [1]: 0.576
- SH2 binding enrichment [2]: 0.5
- SH2 binding enrichment [3]: 0.721
- phosphorylation enrichment [4]: 0.463
- phosphorylation enrichment [5]: 0.561
- phosphorylation enrichment [6]: 0.632
- phosphorylation enrichment [7]: 0.574
- phosphorylation enrichment [8]: 0.447
- phosphorylation enrichment [9]: 0.338
- phosphorylation enrichment [10]: 0.443
- phosphorylation enrichment [11]: 0.336
- phosphorylation enrichment [12]: 0.32
- phosphorylation enrichment [13]: 0.396
- phosphorylation enrichment [14]: 0.391
- phosphorylation enrichment [15]: 0.91
- phosphorylation enrichment [16]: 0.377

Sequence: GEDEPYAEPYA [APBA1_Y183_S184A]
- SH2 binding enrichment [1]: 0.885
- SH2 binding enrichment [2]: 0.821
- SH2 binding enrichment [3]: 1.1
- phosphorylation enrichment [4]: 0.799
- phosphorylation enrichment [5]: 1.59
- phosphorylation enrichment [6]: 1.53
- phosphorylation enrichment [7]: 1.33
- phosphorylation enrichment [8]: 0.609
- phosphorylation enrichment [9]: 0.694
- phosphorylation enrichment [10]: 0.915
- phosphorylation enrichment [11]: 0.525
- phosphorylation enrichment [12]: 0.608
- phosphorylation enrichment [13]: 0.685
- phosphorylation enrichment [14]: 0.639
- phosphorylation enrichment [15]: 0.544
- phosphorylation enrichment [16]: 0.636

Sequence: EIEFLYNENTV [IARS1_Y680]
- SH2 binding enrichment [1]: 0.619
- SH2 binding enrichment [2]: 0.615
- SH2 binding enrichment [3]: 0.682
- phosphorylation enrichment [4]: 0.724
- phosphorylation enrichment [5]: 1.35
- phosphorylation enrichment [6]: 1.26
- phosphorylation enrichment [7]: 1.26
- phosphorylation enrichment [8]: 0.479
- phosphorylation enrichment [9]: 0.584
- phosphorylation enrichment [10]: 0.927
- phosphorylation enrichment [11]: 0.632
- phosphorylation enrichment [12]: 0.645
- phosphorylation enrichment [13]: 0.641
- phosphorylation enrichment [14]: 0.557
- phosphorylation enrichment [15]: 0.622
- phosphorylation enrichment [16]: 0.515

Sequence: LLPNAYIFVVQ [L1CAM_Y418_A415P_YF]
- SH2 binding enrichment [1]: 0.508
- SH2 binding enrichment [2]: 0.47
- SH2 binding enrichment [3]: 0.65
- phosphorylation enrichment [4]: 1.07
- phosphorylation enrichment [5]: 1.79
- phosphorylation enrichment [6]: 1.66
- phosphorylation enrichment [7]: 1.5
- phosphorylation enrichment [8]: 0.634
- phosphorylation enrichment [9]: 1.06
- phosphorylation enrichment [10]: 1.06
- phosphorylation enrichment [11]: 0.731
- phosphorylation enrichment [12]: 0.868
- phosphorylation enrichment [13]: 0.849
- phosphorylation enrichment [14]: 0.481
- phosphorylation enrichment [15]: 0.73
- phosphorylation enrichment [16]: 0.561

The next lines start with results.

- SH2 binding enrichment [1]: 0.748
- SH2 binding enrichment [2]: 0.507
- SH2 binding enrichment [3]: 0.978
Sequence: VEKEKYVSYIS [JMJD1C_Y596_M591V]
- phosphorylation enrichment [4]: 0.567
- phosphorylation enrichment [5]: 0.76
- phosphorylation enrichment [6]: 0.826
- phosphorylation enrichment [7]: 0.866
- phosphorylation enrichment [8]: 0.464
- phosphorylation enrichment [9]: 0.489
- phosphorylation enrichment [10]: 0.698
- phosphorylation enrichment [11]: 0.466
- phosphorylation enrichment [12]: 0.453
- phosphorylation enrichment [13]: 0.487
- phosphorylation enrichment [14]: 0.5
- phosphorylation enrichment [15]: 0.434
- phosphorylation enrichment [16]: 0.444

- SH2 binding enrichment [1]: 0.663
- SH2 binding enrichment [2]: 0.507
- SH2 binding enrichment [3]: 0.872
Sequence: ERRLIYTSDPK [VPS13D_Y864]
- phosphorylation enrichment [4]: 0.372
- phosphorylation enrichment [5]: 0.563
- phosphorylation enrichment [6]: 0.64
- phosphorylation enrichment [7]: 0.586
- phosphorylation enrichment [8]: 0.444
- phosphorylation enrichment [9]: 0.431
- phosphorylation enrichment [10]: 0.472
- phosphorylation enrichment [11]: 0.43
- phosphorylation enrichment [12]: 0.486
- phosphorylation enrichment [13]: 0.307
- phosphorylation enrichment [14]: 0.437
- phosphorylation enrichment [15]: 0.39
- phosphorylation enrichment [16]: 0.444

- SH2 binding enrichment [1]: 0.827
- SH2 binding enrichment [2]: 0.641
- SH2 binding enrichment [3]: 1.02
Sequence: NFFDLYGGEKF [PTPN11_Y66_D61N_YF]
- phosphorylation enrichment [4]: 0.61
- phosphorylation enrichment [5]: 0.91
- phosphorylation enrichment [6]: 1.02
- phosphorylation enrichment [7]: 0.826
- phosphorylation enrichment [8]: 1.79
- phosphorylation enrichment [9]: 0.634
- phosphorylation enrichment [10]: 0.581
- phosphorylation enrichment [11]: 0.553
- phosphorylation enrichment [12]: 0.419
- phosphorylation enrichment [13]: 0.518
- phosphorylation enrichment [14]: 2.73
- phosphorylation enrichment [15]: 3.54
- phosphorylation enrichment [16]: 0.437

- SH2 binding enrichment [1]: 0.578
- SH2 binding enrichment [2]: 0.65
- SH2 binding enrichment [3]: 0.942
Sequence: QRRLVYFERGA [RYR1_Y245_G248R_YF]
- phosphorylation enrichment [4]: 0.742
- phosphorylation enrichment [5]: 0.847
- phosphorylation enrichment [6]: 0.827
- phosphorylation enrichment [7]: 0.811
- phosphorylation enrichment [8]: 0.584
- phosphorylation enrichment [9]: 0.79
- phosphorylation enrichment [10]: 0.805
- phosphorylation enrichment [11]: 0.586
- phosphorylation enrichment [12]: 0.918
- phosphorylation enrichment [13]: 0.665
- phosphorylation enrichment [14]: 0.569
- phosphorylation enrichment [15]: 0.507
- phosphorylation enrichment [16]: 0.484

- SH2 binding enrichment [1]: 0.578
- SH2 binding enrichment [2]: 0.418
- SH2 binding enrichment [3]: 0.827
Sequence: STSKTYVISQT [RBBP6_Y87_R91Q]
- phosphorylation enrichment [4]: 0.429
- phosphorylation enrichment [5]: 0.591
- phosphorylation enrichment [6]: 0.694
- phosphorylation enrichment [7]: 0.559
- phosphorylation enrichment [8]: 0.446
- phosphorylation enrichment [9]: 0.418
- phosphorylation enrichment [10]: 0.615
- phosphorylation enrichment [11]: 0.328
- phosphorylation enrichment [12]: 0.431
- phosphorylation enrichment [13]: 0.391
- phosphorylation enrichment [14]: 0.466
- phosphorylation enrichment [15]: 0.372
- phosphorylation enrichment [16]: 0.44

- SH2 binding enrichment [1]: 0.734
- SH2 binding enrichment [2]: 0.629
- SH2 binding enrichment [3]: 1.19
Sequence: PSAELYSNALP [PDGFRB_Y716]
- phosphorylation enrichment [4]: 1.73
- phosphorylation enrichment [5]: 1.55
- phosphorylation enrichment [6]: 1.79
- phosphorylation enrichment [7]: 0.849
- phosphorylation enrichment [8]: 1.66
- phosphorylation enrichment [9]: 1.91
- phosphorylation enrichment [10]: 0.96
- phosphorylation enrichment [11]: 7.66
- phosphorylation enrichment [12]: 1.79
- phosphorylation enrichment [13]: 2.63
- phosphorylation enrichment [14]: 1.38
- phosphorylation enrichment [15]: 3.02
- phosphorylation enrichment [16]: 7.96

- SH2 binding enrichment [1]: 0.815
- SH2 binding enrichment [2]: 3.15
- SH2 binding enrichment [3]: 0.823
Sequence: IVRSLYEDPED [VHL_Y185_L188P]
- phosphorylation enrichment [4]: 0.707
- phosphorylation enrichment [5]: 1.12
- phosphorylation enrichment [6]: 1.02
- phosphorylation enrichment [7]: 0.878
- phosphorylation enrichment [8]: 0.455
- phosphorylation enrichment [9]: 0.698
- phosphorylation enrichment [10]: 0.619
- phosphorylation enrichment [11]: 0.738
- phosphorylation enrichment [12]: 0.502
- phosphorylation enrichment [13]: 0.748
- phosphorylation enrichment [14]: 0.586
- phosphorylation enrichment [15]: 0.544
- phosphorylation enrichment [16]: 0.424

- SH2 binding enrichment [1]: 0.836
- SH2 binding enrichment [2]: 0.533
- SH2 binding enrichment [3]: 1
Sequence: TLSGIYQFSIA [FOXL2_Y81_I84S_YF]
- phosphorylation enrichment [4]: 0.952
- phosphorylation enrichment [5]: 1.31
- phosphorylation enrichment [6]: 1.04
- phosphorylation enrichment [7]: 0.919
- phosphorylation enrichment [8]: 5.53
- phosphorylation enrichment [9]: 1.05
- phosphorylation enrichment [10]: 1.27
- phosphorylation enrichment [11]: 6.02
- phosphorylation enrichment [12]: 0.852
- phosphorylation enrichment [13]: 1.63
- phosphorylation enrichment [14]: 5.19
- phosphorylation enrichment [15]: 3.82
- phosphorylation enrichment [16]: 6
